According to patent US20240025993A1, “CD19 BINDING MOLECULES AND USES THEREOF” (NOVARTIS AG, priority 2020, published 2024):

Columns and labels:
[1] = Differential scanning calorimetry, melting temperature of Fc modified anti-CD3 antibodies (Example 35); assay type: physicochemical; conditions: DSC, 1 mg/ml in PBS pH 7.4, anti-CD3 IgG1 Fc variants
Description: Calorimetric measurements were carried out on a differential scanning micro calorimeter (Nano DSC, TA instruments). The cell volume was 0.5 ml and the heating rate was 1° C./min. All proteins were used at a concentration of 1 mg/m in PBS (pH 7.4). The molar heat capacity of each protein was estimated by comparison with duplicate samples containing identical buffer from which the protein had been omitted. The partial molar heat capacities and melting curves were analyzed using standard procedure. Thermograms were baseline corrected and concentration normalized.

[2] = Aggregation propensity (% HMW) by analytical SEC of IgG1 anti-CD3 antibody and Fc variants (Example 35); assay type: physicochemical; conditions: PBS pH 7.4, anti-CD3 antibodies
Description: Size exclusion chromatography measurements were performed to evaluate the aggregation propensity (% HMW) of IgG1 antibody and Fc modified derivatives. The produced and purified anti CD3 antibodies were applied to an analytical size exclusion chromatography column (SEC 200, GE Healthcare), equilibrated with PBS buffer pH 7.4.

[3] = test system: Jurkat NFAT luciferized (JNL) cells with THP-1 cells; experiment: Anti-CD3 NFAT signalling assay, JNL + THP-1 cells (Example 36); assay type: cell-based, human
Description: Jurkat reporter gene assay (RGA) for the nuclear factor of activated T-cells (NFAT) pathway was performed using Jurkat NFAT luciferized (JNL) cells and THP-1 cells (ATCC, TIB202). THP-1 cells express FcγRI, FcγRII, and FcγRIII. Cells were co-incubated for 6 hours at 37° C., 5% CO2 at a 5:1 effector to tumor ratio with each sample at the various concentrations depicted. An equal volume of ONE-Glo™ reagent (Promega, E6110) was added to the culture volume. Plate was shaken for 2 minutes, then incubated for an additional 8 minutes protected from light. For JNL+ THP+IFNg experiment, THP-1 cells were pre-treated with 100 u/mL IFNg for 48 hours at 37° C., 5% CO2 before co-culture. IFNg stimulation increases FcγRI expression. Luciferase activity was quantitated on the EnVision plate reader (PerkinElmer). Data was analyzed and fit to a 5 parameter-logistic curve using GraphPad Prism.

human FcγR1A = human FcγR1A (Homo sapiens, UniProt P12314); experiment: SPR binding of Fc modified anti-CD3 IgG1 antibodies (Example 34); conditions: anti-CD3 IgG1 antibody immobilized
Description: Surface plasmon resonance (SPR) experiments were performed to analyze the interaction of human activating receptors FcγR1A, FcγR3A (V158) and human C1q with IgG1 WT and antibody-Fc variants. Binding kinetics and their relative binding affinities were explored. The binding affinity is an important characteristic of an interaction between an antibody and an antigen. The equilibrium dissociation constant (KD) defines how strong the interaction is and therefore how much antibody-antigen complex is formed at equilibrium.
The knowledge of the antibody characteristics is not only essential during selection of the best therapeutic antibody candidate, but also important to understand the in vivo behavior and potentially predict cellular immune responses. […] Binding to human C1q was evaluated. […] SPR measurements were measured on a Biacore T200 (GE-Healthcare Life Sciences) controlled by Biacore T200 control software version 2.0.1. […]
The antibodies were covalently immobilized on a CM5 sensor chip whereas Fc gamma receptors or human C1q served as analytes in solution (FIG. 38). […] Zero concentration samples (blank runs) were measured for both methods to allow double-referencing during data evaluation.
Data were evaluated using the Biacore T200 evaluation software. […] In addition, the maximum response reached during the experiment was monitored. […]

[4] = test system: T cells co-cultured with OCI-LY-19, Karpas422 or Toledo target cells; experiment: TBM and BBM mediated T cell proliferation (Example 20); assay type: cell-based, human; conditions: in the presence of OCI-LY-19 and Toledo cells; E:T 1:3, 96 hrs
Description: Briefly, OCI-LY-19, Karpas422, and Toledo target cells stably expressing firefly luciferase were plated in a 96 well plate in T Cell Media (TCM) (RPMI-1640, ThermoFisher Scientific, Cat #11875-085), 10% FBS (Seradigm, Cat #1500-500), 1% L-Glutamine (Thermo Fisher Scientific, Cat #25830-081), 1% Non Essential Amino Acids (Thermo Fisher Scientific, Cat #11140-050),1% Pen/Strep (Thermo Fisher Scientific, Cat #15070063), 1% HEPES (Thermo Fisher Scientific, Cat #15630080), Sodium Pyruvate (Thermo Fisher Scientific, Cat #11360-070), 0.1% Beta-mercaptoethanol (Thermo Fisher Scientific, Cat #21985-023)]. PBMCs previously isolated and cryopreserved from 2 Leukopak donors were thawed and Pan T cells were isolated (as described earlier). Isolated T cells were labelled with 5 μM Cell Trace Violet (CTV) (Thermo Fisher Scientific, Cat #C34557) following the manufacturer's protocol and were co-cultured with target cells at an E:T ratio of 1:3. A dilution series of CD3med TSP1, CD3hi TSP1, CD3hi BSP1, CD3hi TSP1C, and blinatumomab ranging from 2.5 nM-0.0006 nM was added to cells and the plates were incubated in a 5% CO2, 37° C. incubator for 96 hrs. […]

[5] = THP-1 cells preincubated with IFNg (100 u/mL, 48 hours)

human FcγR1A, sequence (P12314 16-374): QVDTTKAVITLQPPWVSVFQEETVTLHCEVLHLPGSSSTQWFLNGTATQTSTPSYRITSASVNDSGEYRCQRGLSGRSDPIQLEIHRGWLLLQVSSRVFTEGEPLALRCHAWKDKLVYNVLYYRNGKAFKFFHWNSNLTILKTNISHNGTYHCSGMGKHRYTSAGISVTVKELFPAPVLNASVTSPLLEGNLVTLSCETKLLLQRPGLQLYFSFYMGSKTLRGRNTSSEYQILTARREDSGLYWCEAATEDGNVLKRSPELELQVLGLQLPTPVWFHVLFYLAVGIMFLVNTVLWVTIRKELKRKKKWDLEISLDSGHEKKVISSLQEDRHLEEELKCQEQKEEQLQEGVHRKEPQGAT

Row | Substance | Melting temperature (Tm) of CH2 domain [1] [°C] | (%) higher molecular weight [2] [%] | NFAT activity (T-cell activation) [3, 5] | NFAT activity (T-cell activation) ([3]; without IFNg, JNL:THP-1 5:1, 6 hours) | Maximum response at 100 nM hFcgammaRIA (RU) (human FcγR1A) | T cell proliferation (% proliferated CD3+ T cells) [4]
1 | DAPA-IgG1: anti-CD3 IgG1 with D265A/P329A; previously described silencing motif [reference compound] | 65 | 3.9 | some activity remaining | comparable T-cell activation with the exception of DAPA |  | 
2 | LALAGA-IgG1: anti-CD3 IgG1 with L234A/L235A/G237A | 70 | 2.9 |  |  | 15 | 
3 | LALAPA-IgG1: anti-CD3 IgG1 with L234A/L235A/P329A | 70 | 1.8 | some activity remaining |  |  | 
4 | LALAPG-IgG1: anti-CD3 IgG1 with L234A/L235A/P329G | 70 | 4.2 |  |  | 18 | 
5 | blinatumomab: bispecific T cell engager, or BiTE, that binds to both CD19 and CD3 but lacks an Fc domain [reference compound] |  |  |  |  |  | most potent T cell proliferation
